According to patent US20050069530A1:

T1: human recombinant cytosolic PLA2 (cPLA2) (human), P47712
T1 chain: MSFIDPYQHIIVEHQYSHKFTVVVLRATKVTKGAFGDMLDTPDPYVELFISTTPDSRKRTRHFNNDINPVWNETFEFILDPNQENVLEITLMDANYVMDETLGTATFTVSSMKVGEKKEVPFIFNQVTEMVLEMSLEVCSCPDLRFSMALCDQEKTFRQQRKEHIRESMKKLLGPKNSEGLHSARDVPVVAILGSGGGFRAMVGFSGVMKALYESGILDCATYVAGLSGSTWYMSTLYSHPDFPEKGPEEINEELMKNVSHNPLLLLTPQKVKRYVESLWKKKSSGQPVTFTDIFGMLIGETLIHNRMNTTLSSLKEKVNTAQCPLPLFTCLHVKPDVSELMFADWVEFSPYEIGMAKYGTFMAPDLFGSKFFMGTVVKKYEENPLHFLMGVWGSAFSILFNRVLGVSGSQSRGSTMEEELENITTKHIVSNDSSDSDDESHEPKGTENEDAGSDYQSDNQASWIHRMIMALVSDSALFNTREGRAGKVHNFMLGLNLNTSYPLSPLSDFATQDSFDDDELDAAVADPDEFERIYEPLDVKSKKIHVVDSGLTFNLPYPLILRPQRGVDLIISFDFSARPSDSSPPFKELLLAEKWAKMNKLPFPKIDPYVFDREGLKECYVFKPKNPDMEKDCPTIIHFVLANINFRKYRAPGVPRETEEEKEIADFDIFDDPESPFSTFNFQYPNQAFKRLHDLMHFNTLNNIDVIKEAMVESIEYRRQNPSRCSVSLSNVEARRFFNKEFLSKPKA

T2: human type IIA sPLA2 (human), P14555
T2 chain: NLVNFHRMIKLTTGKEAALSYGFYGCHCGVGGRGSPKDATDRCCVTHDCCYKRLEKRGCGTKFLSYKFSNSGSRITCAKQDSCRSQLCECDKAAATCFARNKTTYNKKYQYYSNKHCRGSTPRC


How the values were obtained:
Test in all cases: cell-based or functional assay
[1] = target: T1, human recombinant cytosolic PLA2 …
crotoxin B, P62022 = target: crotoxin B, P62022
[2] = target: T2, human type IIA sPLA2 (human), P14555

Binder | selectivity of enzyme inhibition, sPLA2 over cPLA2 [1] [fold] | IC50 of PLA2 enzyme inhibition (labeled E. coli membrane assay) (crotoxin B, P62022) [µM] | IC50 of sPLA2 enzyme inhibition (3H-labelled E. coli membranes as substrate) [2] [µM]
LGRVDIHVWDGVYIRGR (modifications not checked) [P-NT.II] | 5 | 4.9 | 5.3
YRRVDIGLRVWHDLGVG (modifications not checked) [Scrambled P-NT.II] | – | > 250 | –
